Data from patent publication US20170096478A1, “THERAPEUTIC AGENT FOR INFLAMMATORY DISEASE” (Josai University Corporation, priority 2012, published 2017).

What was measured:
[1] = tested on: lipopolysaccharide (LPS)-induced lethal sepsis; assay: Test Example 8-4: evaluation of congestion, edema, inflammation and bleeding; type: in vivo, BALB/c mice; conditions: vs control group
Protocol: (§1) BALB/c mice (bodyweight of 20 g to 30 g when starting the experiments, n=10) were raised in a plastic cage under SPF and thermo-hydrostat (22±1° C., 55±5%) conditions under 12-hour light-dark cycle. Foods and water were supplied ad libitum. Then, by intraperitoneally administering LPS to the mice at a dose of 40 mg/kg, lipopolysaccharide (LPS)-induced lethal sepsis as an inflammatory disease was induced in the same manner as Test Example 7. SSV mAb dissolved in physiological saline was intraperitoneally administered totally 3 times, i.e., at 30 minutes before, 6 hours after and 12 hours after the intraperitoneal administration of LPS, in an amount of 100 μg/dose in terms of the amount of SSV mAb. The survival of the animals thereafter was tested. To the control group, IgG (SIGMA) dissolved in physiological saline was administered in place of SSV mAb in the same manner.
After the end of Test Example 8, scores of congestion, edema, inflammation and bleeding were evaluated according to the method of Murakami et al. (Shock, 18 (2002), p. 236). In particular, magnified images of 24 visual fields under a microscope were subjected to observation. The degrees of deterioration of congestion, edema and inflammation in the SSV mAb-administered group and the control group were evaluated on a 5-point scale ranging from 0 to 4 (4 is the highest deterioration).

histone H2A = assay: ELISA affinity for histone H2A; type: binding; conditions: absorbance at 405 nm; 5 μg/mL antibody; compared with histone H1
Protocol: (§2) The Affinities between histone H1 or core histone and SSVmAb were determined by ELISA.
(§3) A 96 well microplate was coated with histone H1, H2A, H2B, H3 or H4. Each histone used was dissolved in 100 mM sodium carbonate buffer (pH 9.3). The plate was washed with PBS-tween 20 (0.05%), and blocked with 3% skim milk and 1% BSA for 1 hour. To each well, 5 μg/mL SSVmAb was added, and incubated for 1 hour. Bound SSVmAb was detected using peroxidase (HRP) conjugated anti mouse IgG1 Ab (SIGMA), and incubated for 1 hour. Bound SSVmAb was detected using the ABTS [2,2′-azino-bis(3-ethylbenzothiazoline-sulfonic acid)] substrate solution, and absorbance at 405 nm was measured using Multiskan Ascent (Thermo Fisher Scientific Inc., Waltham, Mass.).

histone H4 = histone H4 (Homo sapiens, UniProt P62805); assay: ELISA affinity for histone H4; type: binding; conditions: absorbance at 405 nm, 5 μg/mL antibody, compared with histone H1
Protocol: as §2, §3
(§4) After the end of the tests, binding assays of SSV mAb with histone H1, histone H3 and histone H4 were carried out by ELISA in the same manner as Test Example 2.

histone H3 = assay: ELISA affinity for histone H3; type: binding; conditions: absorbance at 405 nm, 5 μg/mL antibody, compared with histone H1
Protocol: as §2, §3, §4

[2] = tested on: lipopolysaccharide (LPS)-induced lethal sepsis; assay: Test Example 8-5: measurement of inflammation-associated cytokine in serum; type: in vivo, BALB/c mice; conditions: vs control group
Protocol: as §1
In Test Example 8, serum was obtained from venous blood of the control group and the SSV mAb-administered group every 3 hours. Then, the concentrations of inflammatory cytokine (TNF-α, IL-1β, IL-6) and inhibitory cytokine (IL-10) in obtained samples were measured by using a commercially available measurement kit using ELISA.

[3] = tested on: renal ischemia reperfusion injury; assay: Test Example 10: acute renal failure due to renal ischemia reperfusion injury, check test 2; type: in vivo, male Wistar rats; conditions: autopsy after the end of the test; vs control group
Protocol: Right kidney was removed from male Wistar rat (n=4) under general anesthesia, and then left kidney of the rat was subjected to ischemia reperfusion with vascular clip to prepare a model. For SSV mAb-administered group, SSV mAb was then administered in an amount of 10 mg/kg 30 minutes before preparing the model and immediately after the reperfusion Test was carried out in the same manner as Test Example 10 except that male Wistar rats (n=4-6) were used and except that, for SSV mAb-administered group, SSV mAb was administered in an amount of 10 mg/kg 30 minutes before preparing the model and 6 hours after the reperfusion. For control, IgG (SIGMA) was administered in place of SSV mAb in the same manner. Then, the concentrations of urea nitrogen (BUN) and creatinine (Cr) in serum at 24 hours after preparing the model were measured and the nephropathy level was evaluated. Further, the rats were subjected to autopsy after the end of the test, and histological evaluation was performed.

histone H2B = assay: ELISA affinity for histone H2B; type: binding; conditions: absorbance at 405 nm; 5 μg/mL antibody; compared with histone H1
Protocol: as §2, §3

[4] = tested on: T cells from a Balb/c mouse; assay: MLR tests with T cells with or without mitochondria ATP synthase knock-down by siRNA; type: cell-based
[5] = tested on: lipopolysaccharide (LPS)-induced lethal sepsis; assay: Test Example 8-1: survival in LPS-induced lethal sepsis; type: in vivo, BALB/c mice
Protocol: as §1

B1: SSV mAb: monoclonal antibody (IgG1) produced by Mouse-Mouse hybridoma SSV-C 93-3 (NITE BP-972), raised against peptide … (SEQ ID NO:1)-KLH conjugate (antibody, V domains shown)
VH: EIQLQQSGAELVKPGASVKISCKASGYSFTGYNMNWVKQSHGKSLEWIGNINPYYGSTSYNQKFKGKATLTVDKSSSTAYMQLNSLTSEDSAVYYCARSPYYSNYWRYFDYWGQGTTLTVSS
VL: QIVLSQSPAILSASPGEKVTMTCRASSSVSYMHWYQQKPGSSPKPWIYATSNLASGVPARFSGSGSGTSYSLTISRVEAEDAATYYCQQWSSNPWTFGGGTKLEIK
[1]; 5-point scale 0 to 4
  score of congestion: significantly lower
  score of edema: significantly lower
  score of inflammation: significantly lower
[1]
  score of bleeding: significantly lower
Histone H2A
  affinity for histone H2A (ELISA): higher than the affinity for histone H1
Histone H4
  affinity for histone H4 (ELISA): binding capacity
Histone H4; listed as SSVmAb
  affinity for histone H4 (ELISA): higher than the affinity for histone H1
Histone H3
  affinity for histone H3 (ELISA): binding capacity
Histone H3; listed as SSVmAb
  affinity for histone H3 (ELISA): higher than the affinity for histone H1
[2]
  IL-1β concentration in blood sample: significantly decreased
  IL-6 concentration in blood sample: significantly decreased
  IL-10 concentration in blood sample: significantly increased
  TNF-α concentration in blood sample: significantly decreased
[3]
  histological evaluation of kidney: better than that of the control group
Histone H2B
  affinity for histone H2B (ELISA): higher than the affinity for histone H1
[4]; ATP synthase knocked down
  cell growth inhibition in MLR compared with Isotype IgG1: no significant difference
[4]; ATP synthase not knocked down
  cell growth inhibition in MLR compared with Isotype IgG1: significantly inhibited cell growth
[5]; 24 hours after administration of LPS 40 mg/kg i.p., 100 μg/dose i.p. 3 times
  survival rate: 70%
[5]; 70 hours after administration of LPS, p<0.05
  survival rate relative to that of the control group: about 3.5 times
